A short description of series [1]: Comparison of molecular size by size exclusion chromatography in DPBS. It counts as physicochemical. As to conditions: SEC, DPBS buffer. The protocol: Size exclusion chromatography was performed to indirectly predict the molecular size of subcutaneously injected insulin formulation and its size change according to natural dilution (Havelund et al., 2004). The representative commercial long-acting insulin formulations, Levemir and Lantus, were used as a control group to examine the relative molecular size of the cobalt PEG-insulin hexamer. Chromatography was performed according to the conditions described in Example 4, except that DPBS was used as a buffer solution to create subcutaneous environment.

The nature of series [2]: Measurement of hydrodynamic volume by size exclusion chromatography. It counts as physicochemical. Particulars: for Hydrodynamic volume: SEC Superdex 200 10/300 GL, regression line from standard proteins; for Hydrodynamic volume, times larger than monomer: hexamer versus monomer. The protocol:
PEG-insulin conjugates in 20 mM HEPES buffer (pH 8.2) were mixed with a cobalt chloride solution to a ratio of cobalt to hexamer of 3:1. To convert divalent cobalt ions into trivalent cobalt ions, hydrogen peroxide corresponding to twice of the total divalent cobalt ions was added, and left at room temperature for 2 h. Thereafter, cobalt PEG-insulin hexamers were isolated by SEC (size exclusion chromatography).
Column: Superdex 200 16/60 prep grade (GE Healthcare)
Buffer: 20 mM HEPES pH 8.2+0.2 M NaCl
Hydrodynamic volume of the PEG-insulin conjugate or the cobalt PEG-insulin hexamer was measured according to the conditions described in Example 4, except that Superdex 200 10/300 GL was used as a column. The regression line was calculated from the elution volume of standard protein. Partition coefficient (Kav) is defined as follows. Kav=(Ve−V0)/(Vt−V0)
Ve represents the elution volume, V0 represents the void volume determined by Blue dextran, and Vt represents the bed volume.

The test system of series [3] is murine fibroblast 3T3-L1 differentiated into adipocyte. Put plainly: In vitro efficacy test: residual sugar in media of differentiated 3T3-L1 adipocytes. It counts as cell-based. As to conditions: for EC50: differentiated 3T3-L1 adipocytes, 37° C. for 24 h, residual sugar by D-Glucose assay kit. As for the experimental part: In order to differentiate murine fibroblast 3T3-L1 into adipocyte, the cell was inoculated in a 48-well plate containing a 10% FBS/DMEM media containing dexamethasone, IBMX, and insulin at a cell density of 1.0×10^5 per well. The differentiated cells were washed with DPBS three times, and cultured in a serum-free DMEM for 4 h. […] After cultivation at 37° C. for 24 h, the residual sugar concentration in the media was measured using a D-Glucose assay kit (Megazyme), and EC50 values were calculated and shown in Table 1.

The conditions of series [4]: after subcutaneous injection; time for half of the drug to pass the capillary wall; cited from earlier work.

Regarding “Cobalt PEG (5k)-insulin hexamer: hexamer of PEG (5k)-insulin conjugates complexed with trivalent cobalt ions”, in series [1], the “Dissociation coefficient (Kav)” value is given as 0.20 and the Elution time is recorded as 27.63 min. Besides, in series [2], the Hydrodynamic volume was 300 kDa and the “Hydrodynamic volume, times larger than monomer” value is reported as “approximately 5 times”.

With “Cobalt PEG (20k)-insulin hexamer: hexamer of PEG (20k)-insulin conjugates complexed with trivalent cobalt ions”, in series [1], the “Dissociation coefficient (Kav)” value is recorded as 0.01 and the Elution time is 20.12 min. Further, in series [2], the Hydrodynamic volume was 1,600 kDa and the “Hydrodynamic volume, times larger than monomer” value is “approximately 10 times”.

For the substance “PEG (5k)-insulin: human native insulin mono-PEGylated with 5 k mPEG-aldehyde at the amino terminus of the B chain”, in series [3], the 50% effective concentration (EC50) was 0.00948 ± 0.00277 µM. Further, the Relative activity in series [3] (relative to human native insulin (100)) was found to be 60%. In series [2], this substance showed a Hydrodynamic volume of 60 kDa.

Regarding “PEG (20k)-insulin: human native insulin mono-PEGylated with 20 k mPEG-aldehyde at the amino terminus of the B chain”, in series [3], the concentration giving a half-maximal response (EC50) was determined as 0.0136 ± 0.00071 µM.

For the substance insulin detemir, the “Subcutaneous half-life, times longer than native insulin hexamer” value in series [4] is reported as 4 times.

These data come from patent publication US9944688B2, “Non-peptidyl polymer-insulin multimer and method for producing the same” (HANMI SCIENCE CO., LTD., priority 2011, dated 2018).
